Target: T1, BMPR2 (human, on breast cancer cells) (human, UniProt Q13873 27-1038)
T1 construct: whole, on cells; The PDX cells are described as human breast tumor cells; also called BMP Receptor 2
T1 sequence (looked up): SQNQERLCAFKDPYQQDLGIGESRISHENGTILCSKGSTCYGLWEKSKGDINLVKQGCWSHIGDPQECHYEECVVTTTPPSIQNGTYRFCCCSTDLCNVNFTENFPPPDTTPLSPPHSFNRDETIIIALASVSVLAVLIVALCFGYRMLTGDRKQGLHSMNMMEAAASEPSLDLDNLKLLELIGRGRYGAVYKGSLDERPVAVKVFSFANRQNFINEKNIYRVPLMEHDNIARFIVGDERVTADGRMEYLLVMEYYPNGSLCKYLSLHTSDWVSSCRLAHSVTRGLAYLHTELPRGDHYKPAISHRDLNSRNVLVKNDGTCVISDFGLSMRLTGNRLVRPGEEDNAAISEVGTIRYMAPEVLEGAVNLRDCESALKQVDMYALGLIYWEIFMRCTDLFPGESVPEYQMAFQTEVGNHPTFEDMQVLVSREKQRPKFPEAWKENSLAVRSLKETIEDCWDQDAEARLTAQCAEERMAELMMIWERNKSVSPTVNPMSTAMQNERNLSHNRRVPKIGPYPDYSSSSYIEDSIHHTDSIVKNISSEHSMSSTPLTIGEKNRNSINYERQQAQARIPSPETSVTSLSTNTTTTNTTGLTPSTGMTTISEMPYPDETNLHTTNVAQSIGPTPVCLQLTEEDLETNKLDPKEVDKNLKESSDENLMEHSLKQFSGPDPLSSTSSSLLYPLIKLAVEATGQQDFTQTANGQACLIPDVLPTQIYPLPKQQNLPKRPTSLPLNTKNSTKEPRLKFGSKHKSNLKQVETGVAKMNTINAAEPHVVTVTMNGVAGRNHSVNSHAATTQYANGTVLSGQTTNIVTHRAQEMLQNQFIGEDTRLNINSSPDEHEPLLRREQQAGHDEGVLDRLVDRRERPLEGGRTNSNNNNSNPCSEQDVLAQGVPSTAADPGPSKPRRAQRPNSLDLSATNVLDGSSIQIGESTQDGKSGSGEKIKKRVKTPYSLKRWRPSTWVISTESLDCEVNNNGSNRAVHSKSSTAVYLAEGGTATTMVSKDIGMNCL
Assay: Proximity Ligation on sorted breast cancer PDX cells
From the text: Next, we examined the interaction of LEFTY-BMPR2 and BMP7-BMPR2 in different subpopulations of breast cancer cells. Tumor cells were isolated from 3 established breast cancer PDXs using flow cytometry. These models were characterized to follow the cancer stem cell paradigm. The cells were sorted based on EpCAM and CD49f cell surface markers. Different protein-protein interactions were quantified by Proximity Ligation and the cells were also simultaneously stained for pSMAD2 or pSMAD5. As shown in FIGS. 14A-14D, in the tumorigenic population the LEFTY-BMPR2 interaction is predominant, whereas the BMP7-BMPR2 interaction is predominant in non-tumorigenic population.

B1: BMP7 (human, endogenous in breast cancer PDX cells) (ligand, UniProt P18075 293-431, looked up)
chain: STGSKQRSQNRSKTPKNQEALRMANVAENSSSDQRQACKKHELYVSFRDLGWQDWIIAPEGYAAYYCEGECAFPLNSYMNATNHAIVQTLVHFINPETVPKPCCAPTQLNAISVLYFDDSSNVILKKYRNMVVRACGCH
B1: binds.

Source: US20210079400A1 (CZ BIOHUB SF, published 2021)
